Experimental data taken from US20230348572A1 (ROSALIND FRANKLIN INSTITUTE, published 2023).
Read-outs that look alike come from different tables or passages of the source.

Legend:
[1] = biological target: T1, SARS-CoV-2 spike glycoprotein ectodomain (prefusion-stabilized, trimeric) (SARS-CoV-2, UniProt P0DTC2 14-1208)
[2] = biological target: T1, SARS-CoV-2 spike glycoprotein …; experiment: ITC, Spike in the cell, H11-H4 in the syringe
[3] = biological target: T1, SARS-CoV-2 spike glycoprotein …; experiment: ITC, nanobody titrated into trimeric Spike, 1:1 nanobody:monomer
[4] = biological target: T1, SARS-CoV-2 spike glycoprotein …; remark: listed apart in the source

B1: NbRBD_H11-H4 (VHH)
VHH: QVQLVESGGGLMQAGGSLRLSCAVSGRTFSTAAMGWFRQAPGKEREFVAAIRWSGGSAYYADSVKGRFTISRDKAKNTVYLQMNSLKYEDTAVYYCAQTHYVSYLLSDYATWPYDYWGQGTQVTVSS
notes: also called nanobody H11-H4
[1]
  ΔH: -74 kJmol-1
  ΔS: -107 Jmol-1K-1
[2]
  ΔH: -73 kJmol-1
  ΔS: -103 Jmol-1K-1
[3]
  Kd: 44 nM

B2: NbRBD_H11-D4 (VHH)
VHH: QVQLVESGGGLMQAGGSLRLSCAVSGRTFSTAAMGWFRQAPGKEREFVAAIRWSGGSAYYADSVKGRFTISRDKAKNTVYLQMNSLKYEDTAVYYCARTENVRSLLSDYATWPYDYWGQGTQVTVSS
notes: also called nanobody H11-D4
[4]
  ΔH: -81.2 kJmol-1
  ΔS: -136 Jmol-1K-1
[3]
  Kd: 79 nM
